How the values were obtained:
Experiment in all cases: pull-down binding Z-score (relative to library population); higher = stronger binding
Conditions in all cases: RNA library: Library-2
[1] = test system: TO-3-N3 (biotin conjugate)
Outline: (§1)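 Streptavidin beads with 100 pmol of biotin-conjugated small molecule were incubated for 60 min at 25 °C with 1 μg of heat-folded Cy5- or Cy3-end-labelled RNA library in phosphate/NaCl/KCl buffer. Bound RNA was eluted in hot SDS after three washes and hybridised to a DNA barcode microarray at 55.5 °C for 20 h. Each binding score is a library-referenced Z-score, computed after beads-only subtraction and a trimmed mean of barcoded replicate probes.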

[2] = test system: TO-3-N3-2 (biotin conjugate)
Outline: as §1

[3] = test system: TO-N3 (biotin conjugate)
Outline: as §1

[4] = test system: TO-N3-2 (biotin conjugate)
Outline: as §1

Row | Sequence | pull-down binding Z-score [1] | pull-down binding Z-score [2] | pull-down binding Z-score [3] | pull-down binding Z-score [4]
1 | UCACACUAAAAAGUGGA | -0.691 | -0.477 | -1.1 | -1.15
2 | UCACACUCAAAGGCGGUGCACCAACAAAGGUUACUUUUGGUGAUGACACUGUGAUAGAAGUGCAAGGUUACAAGAGUGUGAAUAUCACUUUUGAACUUGAUGA [DMSMaPseq_invitro_SARS-CoV-2_Multi_10_ComplexLevel_1] | 0.0984 | -0.184 | 0.304 | 0.257
3 | UCACAGAAUGCUGUAGCCUCAAAGAUUUUGGGACUACCAACUCAAACUGUUGA | -0.508 | -0.271 | -0.673 | -0.508
4 | UCACUCACUGAGUGA [IAV_invivo_NP_5_Motif_1+IAV_invivo_NP_5_Motif_1] | -0.0667 | -0.357 | -0.616 | -1.45
5 | UCAGCUGGUUUUCCAUUUAAUAAAUGGGGUAAGGCUAGA | -0.104 | -0.448 | -0.355 | -0.851
6 | UCAGUUGUAAACAUUCAAAAAGAAAUUGA | 0.0975 | 0.407 | 0.0554 | 0.216
7 | UCAUAACAGAUGCGCAAACAGGUUCAUCUAAGUGUGUGUGUUCUGUUAUUGA [SHAPE_invivo_SARS-CoV-2_Motif_383] | -0.657 | -0.455 | -0.196 | 1.78
8 | UCAUACUGAAAGCGAACUUCAGUGUGA [IAV_invivo_NS1_NEP_8_Motif_9+IAV_invivo_NS1_NEP_8_Motif_9] | -0.0847 | -0.294 | -0.352 | -1.16
9 | UCAUCAGGAGAUGCCACAACUGCUUAUGCUAAUAGUGUUUUUAACAUUUGUCAAGCUGUCACGGCCAAUGUUAAUGCACUUUUAUCUACUGAUGG [DMSMaPseq_invitro_SARS-CoV-2_Multi_45_ComplexLevel_1] | -0.641 | -0.46 | -0.561 | -0.306
10 | UCAUUAAUUGA | -0.712 | -0.664 | -1.27 | -1.65
11 | UCCAAACGCAAGCUUCGAUAAUUUUAAGUUUGUAUGUGA [SHAPE_invivo_SARS-CoV-2_Motif_125] | -0.388 | -0.0327 | -0.589 | -0.684
12 | UCCAAGAACUUGGA | -0.941 | -0.88 | -1.35 | -1.73
13 | UCCACACGCAAGUUGUGGA | -0.719 | -0.579 | -1.18 | -1.4
14 | UCCACUAGCAUCUUUAUUGGAGAUGUGCCACAGCACACAGAUUGGUGGAAUUAGGAUGGUAGACAUCCUUAGGCAGAACCCAACAGAAGAGCAAGCCGUGGA | -0.764 | -0.269 | -0.545 | 0.0456
15 | UCCAUUUUUGGGUGUUUAUUACCACAAAAACAACAAAAGUUGGA [SHAPE_invitro_SARS-CoV-2_Motif_398] | -1.12 | 0.136 | -1.29 | -0.616
16 | UCCCAGUUUUGGGG [IAV_invivo_PB1_2_Motif_27+IAV_invivo_PB1_2_Motif_27] | -0.953 | -0.902 | -1.36 | -1.6
17 | UCCCAUGAGGGG [IAV_invivo_HA_4_Motif_6+IAV_invivo_HA_4_Motif_6] | -0.753 | -0.725 | -1.28 | -1.39
18 | UCCGAUUUACAGGA [DMSMaPseq_invitro_SARS-CoV-2_Motif_227] | -0.342 | -0.0117 | -0.272 | -0.256
19 | UCCGUAAGUAGGAUACUUACCUG [U1snRNP5ss-21] | -0.611 | -0.419 | -0.61 | -0.337
20 | UCCUAAAGAGGA | 1.2 | -0.431 | 0.703 | -0.731
21 | UCCUAAAGUGAAGUAUUUAUACUUUAUUAAAGGA [SHAPE_invitro_SARS-CoV-2_Motif_235] | -1.14 | -0.48 | -1.44 | -1.61
22 | UCCUAUUACGGA [SHAPE_invivo_SARS-CoV-2_Motif_121] | -0.479 | -0.643 | -0.905 | -1.27
23 | UCCUAUUUCUGAACAUGACUACCAGAUUGGUGGUUAUACUGAAAAAUGGGA | 0.1 | -0.375 | 0.012 | -0.953
24 | UCCUCAGUUUUACAUUCAACUCAGGA | -0.555 | -0.225 | -0.757 | -0.699
